B1: 2M8U (parent)
chain: TKAQVIEAFKVFDRDGNGYVTVDYLRKVLNELGDMMPADEIEEMIYEADPQNSGYVQYETFVGMLFL

This series covers variants of B1. Kind of series: folding stability dG (cDNA display proteolysis); higher = more stable. Particulars: PBS, room temperature.
Regarding TKAQVIEAFKVFDRDGNGYVWVDYLRKVLNELGDMMPADEIEEMIYEADPQNSGYVQYETFVGMLFL [T21W], the “folding stability dG” value turned out to be 3.22 kcal/mol. For the variant TKAQVIEAFKVFDRDGNGYVVVDYLRKVLNELGDMMPADEIEEMIYEADPQNSGYVQYETFVGMLFL [T21V], the “folding stability dG” value is 3.05 kcal/mol.

Take TKAQVIEAFKVFDRDGNGYVTVYYLRKVLNELGDMMPADEIEEMIYEADPQNSGYVQYETFVGMLFL [D23Y]: the “folding stability dG” value was 4.04 kcal/mol. The result for TKAQVIEAFKVFDRDGNGYVTVRYLRKVLNELGDMMPADEIEEMIYEADPQNSGYVQYETFVGMLFL [D23R] reads 3.33 kcal/mol; that for TKAQVIEAFKVFDRDGNGYVTVQYLRKVLNELGDMMPADEIEEMIYEADPQNSGYVQYETFVGMLFL [D23Q], 3.65 kcal/mol.

Take TKAQVIEAFKVFDRDGNGYVTVPYLRKVLNELGDMMPADEIEEMIYEADPQNSGYVQYETFVGMLFL [D23P]: the “folding stability dG” value worked out at 3.44 kcal/mol. Turning to TKAQVIEAFKVFDRDGNGYVTVMYLRKVLNELGDMMPADEIEEMIYEADPQNSGYVQYETFVGMLFL [D23M], the “folding stability dG” value is 3.5 kcal/mol. Take TKAQVIEAFKVFDRDGNGYVTVSYLRKVLNELGDMMPADEIEEMIYEADPQNSGYVQYETFVGMLFL [D23S]: the “folding stability dG” value was determined as 3.55 kcal/mol. Consider TKAQVIEAFKVFDRDGNGYVTVKYLRKVLNELGDMMPADEIEEMIYEADPQNSGYVQYETFVGMLFL [D23K], for which the “folding stability dG” value is 3.64 kcal/mol. For TKAQVIEAFKVFDRDGNGYVTVTYLRKVLNELGDMMPADEIEEMIYEADPQNSGYVQYETFVGMLFL [D23T], the “folding stability dG” value turned out to be 3.65 kcal/mol. TKAQVIEAFKVFDRDGNGYVTVIYLRKVLNELGDMMPADEIEEMIYEADPQNSGYVQYETFVGMLFL [D23I]: the “folding stability dG” value was determined as 3.63 kcal/mol. Take TKAQVIEAFKVFDRDGNGYVTVAYLRKVLNELGDMMPADEIEEMIYEADPQNSGYVQYETFVGMLFL [D23A]: the “folding stability dG” value was 3.58 kcal/mol. Take TKAQVIEAFKVFDRDGNGYVTVCYLRKVLNELGDMMPADEIEEMIYEADPQNSGYVQYETFVGMLFL [D23C]: the “folding stability dG” value is 3.67 kcal/mol.

For TKAQVIEAFKVFDRDGNGYVTVHYLRKVLNELGDMMPADEIEEMIYEADPQNSGYVQYETFVGMLFL [D23H], the “folding stability dG” value came to 3.84 kcal/mol. As to TKAQVIEAFKVFDRDGNGYVTVFYLRKVLNELGDMMPADEIEEMIYEADPQNSGYVQYETFVGMLFL [D23F], the “folding stability dG” value was 4.04 kcal/mol. With TKAQVIEAFKVFDRDGNGYVTVLYLRKVLNELGDMMPADEIEEMIYEADPQNSGYVQYETFVGMLFL [D23L], the “folding stability dG” value was found to be 3.63 kcal/mol. Take TKAQVIEAFKVFDRDGNGYVTVGYLRKVLNELGDMMPADEIEEMIYEADPQNSGYVQYETFVGMLFL [D23G]: the “folding stability dG” value was 3.56 kcal/mol. For the variant TKAQVIEAFKVFDRDGNGYVTVNYLRKVLNELGDMMPADEIEEMIYEADPQNSGYVQYETFVGMLFL [D23N], the “folding stability dG” value was 3.45 kcal/mol. As for TKAQVIEAFKVFDRDGNGYVTVWYLRKVLNELGDMMPADEIEEMIYEADPQNSGYVQYETFVGMLFL [D23W], the “folding stability dG” value was determined as 3.66 kcal/mol.

Turning to TKAQVIEAFKVFDRDGNGYVTVVYLRKVLNELGDMMPADEIEEMIYEADPQNSGYVQYETFVGMLFL [D23V], the “folding stability dG” value came to 3.54 kcal/mol.

As for TKAQVIEAFKVFDRDGNGYVTVEYLRKVLNELGDMMPADEIEEMIYEADPQNSGYVQYETFVGMLFL [D23E], the “folding stability dG” value was 3.74 kcal/mol.

As to TKAQVIEAFKVFDRDGNGYVTRDYLRKVLNELGDMMPADEIEEMIYEADPQNSGYVQYETFVGMLFL [V22R], the “folding stability dG” value was 3.59 kcal/mol.

TKAQVIEAFKVFDRDGNGYVTLDYLRKVLNELGDMMPADEIEEMIYEADPQNSGYVQYETFVGMLFL [V22L]: the “folding stability dG” value worked out at 3.49 kcal/mol.

With TKAQVIEAFKVFDRDGNGYVTDDYLRKVLNELGDMMPADEIEEMIYEADPQNSGYVQYETFVGMLFL [V22D], the “folding stability dG” value turned out to be 1.76 kcal/mol. For the variant TKAQVIEAFKVFDRDGNGYVTGDYLRKVLNELGDMMPADEIEEMIYEADPQNSGYVQYETFVGMLFL [V22G], the “folding stability dG” value came out at 2.36 kcal/mol. Consider TKAQVIEAFKVFDRDGNGYVTHDYLRKVLNELGDMMPADEIEEMIYEADPQNSGYVQYETFVGMLFL [V22H], for which the “folding stability dG” value stood at 3.5 kcal/mol. The result for TKAQVIEAFKVFDRDGNGYVTMDYLRKVLNELGDMMPADEIEEMIYEADPQNSGYVQYETFVGMLFL [V22M] reads 3 kcal/mol. The result for TKAQVIEAFKVFDRDGNGYVTFDYLRKVLNELGDMMPADEIEEMIYEADPQNSGYVQYETFVGMLFL [V22F] reads 2.52 kcal/mol. As to TKAQVIEAFKVFDRDGNGYVTPDYLRKVLNELGDMMPADEIEEMIYEADPQNSGYVQYETFVGMLFL [V22P], the “folding stability dG” value is 2.22 kcal/mol. Consider TKAQVIEAFKVFDRDGNGYVTADYLRKVLNELGDMMPADEIEEMIYEADPQNSGYVQYETFVGMLFL [V22A], for which the “folding stability dG” value stood at 2.95 kcal/mol. For TKAQVIEAFKVFDRDGNGYVTEDYLRKVLNELGDMMPADEIEEMIYEADPQNSGYVQYETFVGMLFL [V22E], the “folding stability dG” value turned out to be 2.47 kcal/mol. As for TKAQVIEAFKVFDRDGNGYVTWDYLRKVLNELGDMMPADEIEEMIYEADPQNSGYVQYETFVGMLFL [V22W], the “folding stability dG” value is 3.11 kcal/mol. Consider TKAQVIEAFKVFDRDGNGYVTNDYLRKVLNELGDMMPADEIEEMIYEADPQNSGYVQYETFVGMLFL [V22N], for which the “folding stability dG” value amounted to 2.76 kcal/mol. TKAQVIEAFKVFDRDGNGYVTQDYLRKVLNELGDMMPADEIEEMIYEADPQNSGYVQYETFVGMLFL [V22Q]: the “folding stability dG” value is 2.95 kcal/mol.

Turning to TKAQVIEAFKVFDRDGNGYVTYDYLRKVLNELGDMMPADEIEEMIYEADPQNSGYVQYETFVGMLFL [V22Y], the “folding stability dG” value amounted to 3.44 kcal/mol. As for TKAQVIEAFKVFDRDGNGYVTKDYLRKVLNELGDMMPADEIEEMIYEADPQNSGYVQYETFVGMLFL [V22K], the “folding stability dG” value was found to be 3.3 kcal/mol. On to TKAQVIEAFKVFDRDGNGYVTTDYLRKVLNELGDMMPADEIEEMIYEADPQNSGYVQYETFVGMLFL [V22T], for which the “folding stability dG” value was determined as 3.19 kcal/mol. The result for TKAQVIEAFKVFDRDGNGYVTSDYLRKVLNELGDMMPADEIEEMIYEADPQNSGYVQYETFVGMLFL [V22S] reads 3.02 kcal/mol; that for TKAQVIEAFKVFDRDGNGYVTIDYLRKVLNELGDMMPADEIEEMIYEADPQNSGYVQYETFVGMLFL [V22I], 3.48 kcal/mol.

Regarding TKAQVIEAFKVFDRDGNGYVTCDYLRKVLNELGDMMPADEIEEMIYEADPQNSGYVQYETFVGMLFL [V22C], the “folding stability dG” value was 2.88 kcal/mol.

Values taken from the MegaScale stability set (Tsuboyama et al. 2023).
